From publication PMC10786891, “Massively parallel profiling of RNA-targeting CRISPR-Cas13d”
Numbering of substitutions follows the chain as printed. Names may count otherwise.

Molecular target: T1, EsCas13d, nuclease-dead (Eubacterium siraeum, UniProt B0MS50, R295A;H300A;R849A;H854A)
T1 sequence: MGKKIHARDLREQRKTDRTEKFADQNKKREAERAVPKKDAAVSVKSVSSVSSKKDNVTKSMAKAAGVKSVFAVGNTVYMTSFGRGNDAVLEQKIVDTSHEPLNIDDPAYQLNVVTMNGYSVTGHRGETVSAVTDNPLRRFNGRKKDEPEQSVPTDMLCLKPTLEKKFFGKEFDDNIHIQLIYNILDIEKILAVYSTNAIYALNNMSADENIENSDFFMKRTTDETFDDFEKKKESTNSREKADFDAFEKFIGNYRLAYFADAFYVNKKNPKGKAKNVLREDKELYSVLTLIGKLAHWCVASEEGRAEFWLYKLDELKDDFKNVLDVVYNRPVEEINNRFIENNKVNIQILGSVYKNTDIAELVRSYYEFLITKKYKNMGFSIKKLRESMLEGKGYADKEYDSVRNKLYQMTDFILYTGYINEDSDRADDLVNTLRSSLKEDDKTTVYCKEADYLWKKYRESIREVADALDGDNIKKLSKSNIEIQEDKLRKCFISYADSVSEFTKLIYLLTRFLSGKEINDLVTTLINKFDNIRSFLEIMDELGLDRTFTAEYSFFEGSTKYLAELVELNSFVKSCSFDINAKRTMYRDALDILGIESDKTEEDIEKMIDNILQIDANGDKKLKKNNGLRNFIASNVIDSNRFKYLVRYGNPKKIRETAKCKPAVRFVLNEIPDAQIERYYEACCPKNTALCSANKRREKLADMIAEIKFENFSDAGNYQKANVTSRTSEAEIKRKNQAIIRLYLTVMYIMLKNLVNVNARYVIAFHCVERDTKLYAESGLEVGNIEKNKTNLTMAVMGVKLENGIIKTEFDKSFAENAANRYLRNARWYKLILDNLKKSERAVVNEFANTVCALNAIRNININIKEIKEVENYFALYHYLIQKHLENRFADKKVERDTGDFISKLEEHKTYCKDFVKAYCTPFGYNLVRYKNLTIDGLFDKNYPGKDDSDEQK
Assay: crRNA (strand 1, pre-loaded); Mg2+; 40 mM Tris-HCl pH 7.5, 150 mM NaCl, 6 mM MgCl2, 1 mM DTT, 0.1% Tween-20, 0.2 mg/ml BSA; 25 C; 10 min per concentration, then washed
Conditions: tags: His6-TwinStrep-SUMO cleaved; N-terminal SNAP kept (SNAP-Surface 488); label: 3' end held by stalled T7 RNA polymerase

B1: target 1 A1U,G15A (mixed)
RNA 1: CACCCGUGCAAAAAUGCAGGGGUCUAAAACUGAGCGGAUAACCUCUCUAUGG
RNA 2: GGGAAUGGAUCCACAUCUACGAAUUCGUACCAUAGAAAGGUUAUCCGCUCUCCGAGAUCGGAAGAGCACACGU
Kd: 11.2 ± 0.7 nM

B2: target 1 C7A (mixed)
RNA 1: B1 RNA 1
RNA 2: B1 RNA 2 with A37G, C45A, U51A
Kd: 7.8 ± 0.4 nM

B3: target 1 insA 3' of 15,insG 3' of 10 (mixed)
RNA 1: B1 RNA 1
RNA 2: GGGAAUGGAUCCACAUCUACGAAUUCGUACCAUAGAGAAGGUUGAUCCGCUCACCGAGAUCGGAAGAGCACACGU
Kd: 13.6 ± 1.8 nM

B4: target 1 A20U (mixed)
RNA 1: B1 RNA 1
RNA 2: B1 RNA 2 with A32U, A37G, U51A
Kd: 50 ± 5 nM

B5: target 1 insU 3' of 12,insG 3' of 9 (mixed)
RNA 1: B1 RNA 1
RNA 2: B3 RNA 2 with A39G, G41U, G44A, A45G
Kd: 13.3 ± 0.8 nM

B6: target 1 insC 3' of 5,insU 3' of 5 (mixed)
RNA 1: B1 RNA 1
RNA 2: B3 RNA 2 with A39G, G41U, U43A, G44U, A45C, U46C, C47G, G49U
Kd: 9.3 ± 0.5 nM

B7: target 1 insU 3' of 22,insC 3' of 8 (mixed)
RNA 1: B1 RNA 1
RNA 2: GGGAAUGGAUCCACAUCUACGAAUUCGUACUCAUAGAGAGGUUAUCCCGCUCACCGAGAUCGGAAGAGCACACGU
Kd: ~100 nM

B8: target 1 G17A,U19C (mixed)
RNA 1: B1 RNA 1
RNA 2: B1 RNA 2 with U33C, G35A, A37G, U51A
Kd: 46 ± 6 nM

B9: target 1 U11G,G12A (mixed)
RNA 1: B1 RNA 1
RNA 2: B1 RNA 2 with A37G, G40A, U41G, U51A
Kd: 4.27 ± 0.21 nM

B10: target 1 G5A,A14C (mixed)
RNA 1: B1 RNA 1
RNA 2: B1 RNA 2 with A37G, A38C, G47A, U51A
Kd: 81 ± 34 nM

B11: target 1 C2U,C21U (mixed)
RNA 1: B1 RNA 1
RNA 2: B1 RNA 2 with C31U, A37G, C50U, U51A
Kd: 8.2 ± 0.8 nM

B12: target 1 U8C,A9C (mixed)
RNA 1: B1 RNA 1
RNA 2: B1 RNA 2 with A37G, A43C, U44C, U51A
Kd: 30.5 ± 2.7 nM

B13: target 1 insC 3' of 10,insA 3' of 6 (mixed)
RNA 1: B1 RNA 1
RNA 2: B3 RNA 2 with A39G, G41U, U43C, G44A, A45U, U46C, C48A
Kd: 25.5 ± 2.5 nM

B14: target 1 insG 3' of 16,insC 3' of 8 (mixed)
RNA 1: B1 RNA 1
RNA 2: B3 RNA 2 with A38G, G44A, A45U, U46C
Kd: 24.3 ± 2 nM

B15: target 1 G17A,U19A (mixed)
RNA 1: B1 RNA 1
RNA 2: B1 RNA 2 with U33A, G35A, A37G, U51A
Kd: 54 ± 8 nM

B16: target 1 insC 3' of 9,insA 3' of 8 (mixed)
RNA 1: B1 RNA 1
RNA 2: B3 RNA 2 with A39G, G41U, U43A, G44C, A45U, U46A
Kd: 8.8 ± 0.5 nM

B17: target 1 C6U,U8A (mixed)
RNA 1: B1 RNA 1
RNA 2: B1 RNA 2 with A37G, U44A, C46U, U51A
Kd: 15.1 ± 0.5 nM

B18: target 1 insC 3' of 13,insC 3' of 13 (mixed)
RNA 1: B1 RNA 1
RNA 2: B3 RNA 2 with A39G, G40C, G41C, U42G, G44U
Kd: 35 ± 5 nM

B19: target 1 A1U,A20U (mixed)
RNA 1: B1 RNA 1
RNA 2: B1 RNA 2 with A32U, A37G
Kd: 35.1 ± 1.9 nM

B20: target 1 insA 3' of 8,insA 3' of 7 (mixed)
RNA 1: B1 RNA 1
RNA 2: B3 RNA 2 with A39G, G41U, U43A, G44U, U46C, C47A
Kd: 11.3 ± 0.5 nM

B21: target 1 insC 3' of 22,insA 3' of 8 (mixed)
RNA 1: B1 RNA 1
RNA 2: B7 RNA 2 with U31C, C46A
Kd: 31.4 ± 2.8 nM

B22: target 1 G5C,U8A (mixed)
RNA 1: B1 RNA 1
RNA 2: B1 RNA 2 with A37G, U44A, G47C, U51A
Kd: 38 ± 5 nM

B23: target 1 A1C,C7A (mixed)
RNA 1: B1 RNA 1
RNA 2: B1 RNA 2 with A37G, C45A, U51C
Kd: 9.8 ± 0.6 nM

B24: target 1 insA 3' of 13,insG 3' of 9 (mixed)
RNA 1: B1 RNA 1
RNA 2: B3 RNA 2 with A39G, G40A, G44A, A45G
Kd: 6.9 ± 0.5 nM

B25: target 1 insC 3' of 17 (mixed)
RNA 1: B1 RNA 1
RNA 2: GGGAAUGGAUCCACAUCUACGAAUUCGUACCAUAGCAGAGGUUAUCCGCUCACCGAGAUCGGAAGAGCACACGU
Kd: 50 ± 11 nM

B26: target 1 insU 3' of 9,insG 3' of 2 (mixed)
RNA 1: B1 RNA 1
RNA 2: GGGAAUGGAUCCACAUCUACGAAUUCGUACCAUAGAGAGGUUAUUCCGCUCGACCGAGAUCGGAAGAGCACACGU
Kd: 24.6 ± 3.2 nM

B27: target 1 G17C,C22U (mixed)
RNA 1: B1 RNA 1
RNA 2: B1 RNA 2 with C30U, G35C, A37G, U51A
Kd: 62 ± 11 nM

B28: target 1 A1G,A20U (mixed)
RNA 1: B1 RNA 1
RNA 2: B1 RNA 2 with A32U, A37G, U51G
Kd: 37.8 ± 2.3 nM

B29: target 1 insU 3' of 22,insU 3' of 21 (mixed)
RNA 1: B1 RNA 1
RNA 2: B3 RNA 2 with C31U, A32C, G35U, A39G, G40A, U42G, G44U
Kd: 85 ± 28 nM

B30: target 1 C4A,A16C (mixed)
RNA 1: B1 RNA 1
RNA 2: B1 RNA 2 with A36C, A37G, C48A, U51A
Kd: 49 ± 11 nM

B31: target 1 G5A,A14G (mixed)
RNA 1: B1 RNA 1
RNA 2: B1 RNA 2 with A37G, A38G, G47A, U51A
Kd: 42 ± 4 nM

B32: target 1 U8C,G15A (mixed)
RNA 1: B1 RNA 1
RNA 2: B1 RNA 2 with U44C, U51A
Kd: 26.8 ± 2.1 nM

B33: target 1 insA 3' of 8,insC 3' of 8 (mixed)
RNA 1: B1 RNA 1
RNA 2: B3 RNA 2 with A39G, G41U, U43A, G44U, U46C
Kd: 13.2 ± 0.6 nM

B34: target 1 A1U,C2U (mixed)
RNA 1: B1 RNA 1
RNA 2: B1 RNA 2 with A37G, C50U
Kd: 9.6 ± 0.5 nM
